Assay: label from the status in PepcDB records

| Sequence | protein production |
| --- | --- |
| MSSLTSVELNFLVFRYLQESGFTHAAFTLGYEAGINKSNIDGNMVPPGALIKFVQKGLQYMEMEANLSNSEVDIDEDFSFFQPLDLISKDVKELQDMLREKKRKERDMEKERDRSKENDKGVEREHEGDRNRAKEKDRHEKQKEREREREKLEREKEREREKIEREKEREREKMEREIFEREKDRLKLEKEREIEREREREKIEREKSHEKQLGDADREMVIDQTDKEIAGDGSTGAEPMDIVMTPTSQTSHIPNSDVRILEGHTSEVCACAWSPSASLLASGSGDATARIWSIPEGSFKAVHTGRNINALILKHAKGKSNEKSKDVTTLDWNGEGTLLATGSCDGQARIWTLNGELISTLSKHKGPIFSLKWNKKGDYLLTGSVDRTAVVWDVKAEEWKQQFEFHSGPTLDVDWRNNVSFATSSTDSMIYLCKIGETRPAKTFTGHQGEVNCVKWDPTGSLLASCSDDSTAKIWNIKQSTFVHDLREHTKEIYTIRWSPTGPGTNNPNKQLTLASASFDSTVKLWDAELGKMLCSFNGHREPVYSLAFSPNGEYIASGSLDKSIHIWSIKEGKIVKTYTGNGGIFEVCWNKEGNKIAACFADNSVCVLDFRM | failed |
| MSVLIYVESNGSEIKKSSMDAVAYGTQVASKLGGSAIVVAIGNIPQEQLTALGNFGASKVLHVTGDAFNQNAPLASAAAVVEAAKKAGAKVIVLPKSTLVDSFAPKLASQLKAGVVTNVTELPDTSAGFQVKRSIFTGKAFATVSINTDIKVITLAKNAYQGTETGGTAAVEALSVSLTDADTKVKTTNVEKMSGELLLTEAEIVVSGGRGLKGPENWGVLLDLAKALGAATGCSKPVSDMDWRPHHEHVGQTGVKVAPNLYIAVGISGAIQHLAGVNSSKCIVVINKDPEAPFFKAADYGIVGDLFEVLPKLTEAAKLLK | failed |
| MNNQEKNMLGFNQDEYLTSAREIIAARQKAEQVADEIYQAGFSSLFFASVGGSLAPMMAINEFAKELTTLPVYVEQAAELIHKGNKRLNKDSVVITLSKSGDTKESVAIAEWCKAQGIRVVAITKNADSPLAQAATWHIPMRHKNGVEYEYMLLYWLFFRVLSRNNEFASYDRFASQLEILPANLLKAKQKFDPQADAIASRYHNSDYMMWVGGAEMWGEVYLFSMCILEEMQWKRTRPVSSAEFFHGALELLEKDVPLILVKGEGKCRALDERVERFASKITDNLVVIDPKAYALDGIDDEFRWIMAPCVVSTLLVDRLAAHFEKYTGHSLDIRRYYRQFDY | not failed |
| MRVLVTGGAGFIGSHIVEDLLARGLEVAVLDNLATGKRENVPKGVPFFRVDLRDKEGVERAFREFRPTHVSHQAAQASVKVSVEDPVLDFEVNLLGGLNLLEACRQYGVEKLVFASTGGAIYGEVPEGERAEETWPPRPKSPYAASKAAFEHYLSVYGQSYGLKWVSLRYGNVYGPRQDPHGEAGVVAIFAERVLKGLPVTLYARKTPGDEGCVRDYVYVGDVAEAHALALFSLEGIYNVGTGEGHTTREVLMAVAEAAGKAPEVQPAPPRPGDLERSVLSPLKLMAHGWRPKVGFQEGIRLTVDHFRGAV | not failed |
| MSIDVHPNNYAYQTNEPYKNFEAEDKLIGHLQDFVDGHQEDVKRIGSKMSEMKAKFEEKFDDLTNRLENMEGALVEINNALLNHQDDIQDQYTRIVNVGLVVDTVESHLDWKIEELEKKLNNSNEFSE | not failed |
| MVNLMILSGIVLLTCIISSKIFYKWGVPVLLVFIIIGMLFGSDGIGGIYFDNYNITYSLSSIALVFIMFYGGFCTEWKKARSVAIPSIMLSTLGVIITAGLTGLFCHFVLKTSIFEGLLLGCIVASTDAASVISILRSRNLKLKNNIDTLVEFESGSNDPTAYMLTSVMLIFITSNESVGIGLLGMIFKQIVFGVTVGLFLSKLAVFILRKVEFEIEGLYPIFTITVAILAYSISEFLGGNGYLSVFIAGIVMGNSKIPHKKSLNHFFDGLSWIMQIILFFMLGLLAFPSQLPSIAFEGIAISIFLILVGRPIAVFTILSWFKVPIKEQMFISWVGLRGAGSLVFAIYAITKTSAIENDIFHIIFFIALFSVAIQGTLIPWFAKKLDLICYEDDNHEDNMKNNIKDYIFEVKVGENNKVVNKAIMDSEIPDEILIVMIKRDNKVVIPKGFTIIKPNDTLVLTSENNEIMNSFLDEIR | failed |
| MECKTMERITVNLGERSYPISIGAGLFANPALLSLSAKQKVVIVTNHTVAPLYAPAIISLLDHIGCQHALLELPDGEQYKTLETFNTVMSFLLEHNYSRDVVVIALGGGVIGDLVGFAAACYQRGVDFIQIPTTLLSQVDSSVGGKTAVNHPLGKNMIGAFYQPKAVVIDTDCLTTLPAREFAAGMAEVIKYGIIYDSAFFDWLEAQMEALYALDEQALTYAIARCCQIKAEVVAQDEKESGIRALLNLGHTFGHAIEAHMGYGNWLHGEAVSAGTVMAAKTAQLQGLIDASQFERILAILKKAHLPVRTPENMTFADFMQHMMRDKKVLAGELRLVLPTSIGTSAVVKGVPEAVIAQAIEYCRTV | not failed |

From a protein production outcome set (Wang et al. 2014)
